These results are taken from article PMC9352680, “A comprehensive thermodynamic model for RNA binding by the Saccharomyces cerevisiae Pumilio protein PUF4”.

In series [1] the target is T1, PUF4 RNA-binding domain (Pumilio homology domain) (Saccharomyces cerevisiae, UniProt P25339 537-888).
T1 sequence: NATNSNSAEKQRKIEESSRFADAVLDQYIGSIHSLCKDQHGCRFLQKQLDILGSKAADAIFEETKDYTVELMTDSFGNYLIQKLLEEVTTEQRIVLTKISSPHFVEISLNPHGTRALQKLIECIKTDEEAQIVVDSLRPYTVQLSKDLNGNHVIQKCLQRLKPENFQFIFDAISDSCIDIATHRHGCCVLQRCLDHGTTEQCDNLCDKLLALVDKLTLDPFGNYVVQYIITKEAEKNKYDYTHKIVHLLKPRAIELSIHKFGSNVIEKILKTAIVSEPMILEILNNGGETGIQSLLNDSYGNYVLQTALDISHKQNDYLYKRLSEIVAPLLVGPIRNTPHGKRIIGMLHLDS
The series is described as follows: RNA-MaP; ddG 3.923; RNA-MaP: 20 mM Na-HEPES pH 7.4, 0.1% Tween-20, 5% glycerol, 0.1 mg/mL BSA, 2 mM DTT, low salt 0.75 mM MgCl2 + 30 mM KOAc (model data; high salt 2 mM MgCl2 + 100 mM KOAc), 25 C. As to conditions: protein: recombinant; tags: C-terminal SNAP tag, Cy3B-labeled; N-terminal His tag removed with TEV; label: array RNA; single-stranded.

Series [2] concerns the target T1, PUF4 RNA-binding domain (Pumilio …). The series is described as follows: EMSA (active-fraction titration); high salt: 2 mM MgCl2, 100 mM KOAc; 69% active protein; RNA-MaP: 20 mM Na-HEPES pH 7.4, 0.1% Tween-20, 5% glycerol, 0.1 mg/mL BSA, 2 mM DTT, low salt 0.75 mM MgCl2 + 30 mM KOAc (model data; high salt 2 mM MgCl2 + 100 mM KOAc), 25 C. As to conditions: protein: recombinant; tags: C-terminal SNAP tag, Cy3B-labeled; N-terminal His tag removed with TEV; label: 32P (trace) plus unlabeled; single-stranded. (In EMSA bound probe runs differently from free probe, usually more slowly.)

Series [3] has the same target. The series can be described thus: RNA-MaP; ddG 3.533; RNA-MaP: 20 mM Na-HEPES pH 7.4, 0.1% Tween-20, 5% glycerol, 0.1 mg/mL BSA, 2 mM DTT, low salt 0.75 mM MgCl2 + 30 mM KOAc (model data; high salt 2 mM MgCl2 + 100 mM KOAc), 25 C. As to conditions: protein: recombinant; tags: C-terminal SNAP tag, Cy3B-labeled; N-terminal His tag removed with TEV; label: array RNA; single-stranded.

Series [4] has the same target. The series can be described thus: RNA-MaP; ddG 3.256; RNA-MaP: 20 mM Na-HEPES pH 7.4, 0.1% Tween-20, 5% glycerol, 0.1 mg/mL BSA, 2 mM DTT, low salt 0.75 mM MgCl2 + 30 mM KOAc (model data; high salt 2 mM MgCl2 + 100 mM KOAc), 25 C. Conditions: protein: recombinant; tags: C-terminal SNAP tag, Cy3B-labeled; N-terminal His tag removed with TEV; label: array RNA; single-stranded.

Series [5] shares this target. The series is described as follows: RNA-MaP; ddG 0.934; RNA-MaP: 20 mM Na-HEPES pH 7.4, 0.1% Tween-20, 5% glycerol, 0.1 mg/mL BSA, 2 mM DTT, low salt 0.75 mM MgCl2 + 30 mM KOAc (model data; high salt 2 mM MgCl2 + 100 mM KOAc), 25 C. As to conditions: protein: recombinant; tags: C-terminal SNAP tag, Cy3B-labeled; N-terminal His tag removed with TEV; label: array RNA; single-stranded.

Series [6] shares this target. The series is described as follows: RNA-MaP; ddG 0.613; RNA-MaP: 20 mM Na-HEPES pH 7.4, 0.1% Tween-20, 5% glycerol, 0.1 mg/mL BSA, 2 mM DTT, low salt 0.75 mM MgCl2 + 30 mM KOAc (model data; high salt 2 mM MgCl2 + 100 mM KOAc), 25 C. As to conditions: protein: recombinant; tags: C-terminal SNAP tag, Cy3B-labeled; N-terminal His tag removed with TEV; label: array RNA; single-stranded.

Series [7] shares this target. The series can be described thus: RNA-MaP; ddG 0.243; RNA-MaP: 20 mM Na-HEPES pH 7.4, 0.1% Tween-20, 5% glycerol, 0.1 mg/mL BSA, 2 mM DTT, low salt 0.75 mM MgCl2 + 30 mM KOAc (model data; high salt 2 mM MgCl2 + 100 mM KOAc), 25 C. As to conditions: protein: recombinant; tags: C-terminal SNAP tag, Cy3B-labeled; N-terminal His tag removed with TEV; label: array RNA; single-stranded.

For series [8] the target is unchanged. The series can be described thus: RNA-MaP; ddG 1.018; RNA-MaP: 20 mM Na-HEPES pH 7.4, 0.1% Tween-20, 5% glycerol, 0.1 mg/mL BSA, 2 mM DTT, low salt 0.75 mM MgCl2 + 30 mM KOAc (model data; high salt 2 mM MgCl2 + 100 mM KOAc), 25 C. As to conditions: protein: recombinant; tags: C-terminal SNAP tag, Cy3B-labeled; N-terminal His tag removed with TEV; label: array RNA; single-stranded.

For series [9] the target is unchanged. The series can be described thus: RNA-MaP; ddG 1.663; RNA-MaP: 20 mM Na-HEPES pH 7.4, 0.1% Tween-20, 5% glycerol, 0.1 mg/mL BSA, 2 mM DTT, low salt 0.75 mM MgCl2 + 30 mM KOAc (model data; high salt 2 mM MgCl2 + 100 mM KOAc), 25 C. As to conditions: protein: recombinant; tags: C-terminal SNAP tag, Cy3B-labeled; N-terminal His tag removed with TEV; label: array RNA; single-stranded.

B1: S1a K3.1 T1G (ssRNA)
RNA: UCUCUUGGUAUAUAUCUCUU
In the case of B1, the Kd in series [1] is -7.7 ± 0.635 kcal/mol (dG=RTlnKd).

B2: consensus RNA 14-mer (ssRNA)
RNA: AUGUGUAUAUUAGU
As for B2, the binding result in [2] is given as “binds”.

B3: S1a K3.1 T1C (ssRNA)
RNA: UCUCUUCGUAUAUAUCUCUU
In the case of B3, the Kd in series [3] is -8.09 ± 0.575 kcal/mol (dG=RTlnKd).

B4: S1a K3.1 T1A (ssRNA)
RNA: UCUCUUAGUAUAUAUCUCUU
Consider B4, for which the Kd in [4] is -8.36 ± 0.617 kcal/mol (dG=RTlnKd).

B5: S1a K3.1 A8C (ssRNA)
RNA: UCUCUUUGUAUAUCUCUCUU
Take B5: the Kd in [5] was -10.7 ± 0.225 kcal/mol (dG=RTlnKd).

B6: S1a K4.1 T8C (ssRNA)
RNA: UCUCUUUGUAUAUCAUCUCUU
In the case of B6, in series [6], the Kd is -11 ± 0.259 kcal/mol (dG=RTlnKd).

B7: S1a K3.1 A8T (ssRNA)
RNA: UCUCUUUGUAUAUUUCUCUU
As to B7, in [7], the Kd is -11.4 ± 0.257 kcal/mol (dG=RTlnKd).

B8: S1a K3.1 A8G (ssRNA)
RNA: UCUCUUUGUAUAUGUCUCUU
On to B8, for which, in series [8], the Kd is -10.6 ± 0.24 kcal/mol (dG=RTlnKd).

B9: S1a K3.1 T7A (ssRNA)
RNA: UCUCUUUGUAUAAAUCUCUU
B9: the Kd in [9] was -9.96 ± 0.7 kcal/mol (dG=RTlnKd).
